Measured values: patent publication US20230331872A1 (CYTOIMMUNE THERAPEUTICS, published 2023)

T1: Recombinant Human NKG2D, amino acid Phe78-Val216 (Accession #P26718) (Biolegends, #781908) (human, UniProt P26718 78-216)
T1 construct: range 78-216; Bought reagent; also called NKG2D-fusion protein; CD314
T1 sequence (looked up): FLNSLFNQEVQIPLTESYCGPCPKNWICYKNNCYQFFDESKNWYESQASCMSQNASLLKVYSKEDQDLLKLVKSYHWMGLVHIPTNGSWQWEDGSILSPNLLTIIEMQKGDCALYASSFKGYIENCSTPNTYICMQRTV


Target: T1, Recombinant Human NKG2D, amino acid …
Test: home developed BiKE detection ELISA with NKG2D-fusion protein coated plate, 72 h serum-free NK cell supernatant
Method: An unique ELISA assay was developed for detecting the concentration of full human Source Scfv-anti NKG2D and GPRCSD. Firstly, the Nunc MaxiSorp™ flat-bottom plate (Invitrogen™, 44-2404-21) was coated with 100 ng/well of Recombinant Human NKG2D, amino acid Phe78-Va1216 (Accession #P26718) (Biolegends, #781908) dissolved in 100 μl of DPBS (Gibco, 14190) at 4 degree overnight. After washing with 1x DPBS buffer with final 0.05% Tween 20 and blocking with 1% BSA in 1x DPBS buffer with final 0.05% Tween 20, 100 μl of samples and standard in blocking buffer were added to each well. The standard used in this assay was a human anti human NKG2D antibody, CD314 (NKG2D)-PE, human, Cat: 130-111-645, recombinant human IgG1, Miltenyi Biotec GmbH (0.25 mg/ml). For detection, a Biotinylated Goat anti-Human IgG (H+L) Cross-Adsorbed Secondary Antibody and HRP-Conjugated Streptavidin (Thermo Scientific™, N100), as well as 1-Step™ Ultra TMB-ELISA Substrate Solution, (Bio-Rad #34029). Stop buffer used was 1 M H₃PO₄.
0.5-1×10⁶ transduced NK cells (FIG. 39) were seeded and cultured in serum free media for 72 hours. Supernatant was subsequently collected, centrifuged, and immediately added to IL-15 pre-coated ELISA plate (R&D Systems S1500) and home developed BiKE detection ELISA with NKG2D-fusion protein coated plate. […] Data present here was as average concentration from four independent donors as mean±SD.

| binding result | Binder |
| --- | --- |
| binds | NKG2D-GPRC5D BiKE (NG2-BiKE) secreted from NK cells transduced with P62: NG2-BiKE BCMA-CAR--SIL-15-RQR8 (bispecific antibody, human IgG4 S228P, F234A L235A, N297Q, also called IL2 SP BiKE; NKG2D-GPRC5D BiKE-BCMA CAR-SIL-15-RQR8-P62) QVQLVESGGGLVKPGGSLRLSCAASGFTFSSYGMHWVRQAPGKGLEWVAFIRYDGSNKYYADSVKGRFTISRDNSKNTLYLQMNSLRAEDTAVYYCAKDRGLGDGTYFDYWGQGTTVTVSSGGGGSGGGGSGGGGSQSALTQPASVSGSPGQSITISCSGSSSNIGNNAVNWYQQLPGKAPKLLIYYDDLLPSGVSDRFSGSKSGTSAFLAISGLQSEDEADYYCAAWDDSLNGPVFGGGTKLTVLPSGQAGAAASESLFVSNHAYQVQLVQSGAEVKKPGASVKVSCKASGYSFTGYTMNWVRQAPGQGLEWMGLINPYNSDTNYAQKLQGRVTMTTDTSTSTAYMELRSLRSDDTAVYYCARVALRVALDYWGQGTLVTVSSGGGGSGGGGSGGGGSDIQMTQSPSSLSASVGDRVTITCKASQNVATHVGWYQQKPGKAPKRLIYSASYRYSGVPSRFSGSGSGTEFTLTISNLQPEDFATYYCQQYNRYPYTFGQGTKLEIKESKYGPPCPPCPAPEAAGGPSVFLFPPKPKDTLMISRTPEVTCVVVDVSQEDPEVQFNWYVDGVEVHNAKTKPREEQFQSTYRVVSVLTVLHQDWLNGKEYKCKVSNKGLPSSIEKTISKAKGQPREPQVYTLPPSQEEMTKNQVSLTCLVKGFYPSDIAVEWESNGQPENNYKTTPPVLDSDGSFFLYSRLTVDKSRWQEGNVFSCSVMHEALHNHYTQKSLSLSLGK |
| binds | GPRC5D-NKG2D BiKE (GN1-BiKE) secreted from NK cells transduced with P61: GN1-BiKE BCMA-CAR--SIL-15-RQR8 (bispecific antibody, human IgG4 S228P, F234A L235A, N297Q, also called IL2 SP BiKE; GPRC5D-NKG2D BiKE-BCMA CAR-SIL-15-RQR8-P61) DIQMTQSPSSLSASVGDRVTITCKASQNVATHVGWYQQKPGKAPKRLIYSASYRYSGVPSRFSGSGSGTEFTLTISNLQPEDFATYYCQQYNRYPYTFGQGTKLEIKGGGGSGGGGSGGGGSQVQLVQSGAEVKKPGASVKVSCKASGYSFTGYTMNWVRQAPGQGLEWMGLINPYNSDTNYAQKLQGRVTMTTDTSTSTAYMELRSLRSDDTAVYYCARVALRVALDYWGQGTLVTVSSPSGQAGAAASESLFVSNHAYQSALTQPASVSGSPGQSITISCSGSSSNIGNNAVNWYQQLPGKAPKLLIYYDDLLPSGVSDRFSGSKSGTSAFLAISGLQSEDEADYYCAAWDDSLNGPVFGGGTKLTVLGGGGSGGGGSGGGGSQVQLVESGGGLVKPGGSLRLSCAASGFTFSSYGMHWVRQAPGKGLEWVAFIRYDGSNKYYADSVKGRFTISRDNSKNTLYLQMNSLRAEDTAVYYCAKDRGLGDGTYFDYWGQGTTVTVSSESKYGPPCPPCPAPEAAGGPSVFLFPPKPKDTLMISRTPEVTCVVVDVSQEDPEVQFNWYVDGVEVHNAKTKPREEQFQSTYRVVSVLTVLHQDWLNGKEYKCKVSNKGLPSSIEKTISKAKGQPREPQVYTLPPSQEEMTKNQVSLTCLVKGFYPSDIAVEWESNGQPENNYKTTPPVLDSDGSFFLYSRLTVDKSRWQEGNVFSCSVMHEALHNHYTQKSLSLSLGK |
